Experimental data taken from patent US20020182595, “Method of identifying cellular regulators of adeno-associated virus (AAV)” (published 2002).
Residue numbers refer to the chain shown, from its start.

Columns and labels:
ZF5 = target: T1, ZF5 (Homo sapiens, UniProt O43829 O43829:1-449); test: EMSA; competed by excess unlabeled wild-type RRS; settings: tags: untagged and N-terminal 6xMyc versions; label: 32P
T1 sequence: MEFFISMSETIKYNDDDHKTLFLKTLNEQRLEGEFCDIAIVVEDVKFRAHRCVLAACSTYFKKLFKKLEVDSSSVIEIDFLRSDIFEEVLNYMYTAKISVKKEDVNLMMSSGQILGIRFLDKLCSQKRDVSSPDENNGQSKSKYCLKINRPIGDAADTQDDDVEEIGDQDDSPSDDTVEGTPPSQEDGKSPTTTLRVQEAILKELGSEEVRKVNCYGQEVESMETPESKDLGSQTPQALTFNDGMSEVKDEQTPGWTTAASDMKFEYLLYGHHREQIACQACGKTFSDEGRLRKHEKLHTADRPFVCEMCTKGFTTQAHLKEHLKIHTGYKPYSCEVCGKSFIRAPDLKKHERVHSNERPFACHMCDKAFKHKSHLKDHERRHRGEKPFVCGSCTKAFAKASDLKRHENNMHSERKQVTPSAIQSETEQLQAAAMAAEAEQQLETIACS

ZF5 zinc finger 4 mutant = target: T2, ZF5 zinc finger 4 mutant (Homo sapiens, UniProt O43829 O43829:1-449, C363S); test: EMSA; no shift detected; settings: tags: untagged and N-terminal 6xMyc versions; label: 32P
T2 sequence: T1 sequence with C363S

Rep78 = target: T3, Rep78 (UniProt Q89268 Q89268:1-621); test: EMSA; blocked by wild-type RRS competitor; settings: label: 32P
T3 sequence: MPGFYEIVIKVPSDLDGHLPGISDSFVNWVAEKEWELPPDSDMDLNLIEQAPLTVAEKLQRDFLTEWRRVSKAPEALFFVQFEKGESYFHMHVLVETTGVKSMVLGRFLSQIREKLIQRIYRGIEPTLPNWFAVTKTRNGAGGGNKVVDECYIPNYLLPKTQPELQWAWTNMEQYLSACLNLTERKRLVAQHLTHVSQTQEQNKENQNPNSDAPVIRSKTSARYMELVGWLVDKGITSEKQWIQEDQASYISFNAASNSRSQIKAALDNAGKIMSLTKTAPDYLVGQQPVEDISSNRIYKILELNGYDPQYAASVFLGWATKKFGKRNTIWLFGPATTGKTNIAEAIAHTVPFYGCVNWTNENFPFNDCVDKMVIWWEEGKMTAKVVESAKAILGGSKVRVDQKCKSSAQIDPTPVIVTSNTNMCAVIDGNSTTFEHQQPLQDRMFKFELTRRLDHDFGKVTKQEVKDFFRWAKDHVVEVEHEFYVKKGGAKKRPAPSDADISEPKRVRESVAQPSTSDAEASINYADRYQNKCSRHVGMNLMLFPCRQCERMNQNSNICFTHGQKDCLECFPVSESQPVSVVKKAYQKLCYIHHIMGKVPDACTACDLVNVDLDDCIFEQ

[1] = target: T4, ZF5C (clone A25, C-terminal ZF5 fragment) (Homo sapiens, UniProt O43829 O43829:308-449); test: EMSA; blocked by wild-type RRS competitor; settings: tags: N-terminal 6xMyc; label: 32P
T4 sequence: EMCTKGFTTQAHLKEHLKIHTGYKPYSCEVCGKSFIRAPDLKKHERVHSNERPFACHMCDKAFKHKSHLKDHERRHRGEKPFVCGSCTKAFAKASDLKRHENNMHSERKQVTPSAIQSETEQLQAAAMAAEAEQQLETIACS

B1: RRS probe (core of 32-bp oligonucleotide) (dsDNA)
DNA 1: CTGCGCGCTCGCTCGCTCAC
DNA 2: GTGAGCGAGCGAGCGCGCAG
B1: binds (ZF5); no binding (ZF5 zinc finger 4 mutant); binds (Rep78). B1: binds [1].
